These results are taken from patent US9834772, “Aptamers bound human serum albumin and glycated human serum albumin” (National Science & Technology Development Agency).

What all share (conditions): label: 5' biotin
Data set [1] has as its target T1, Human serum albumin (HSA) (Homo sapiens, UniProt P02768 P02768:25-609). The experiment in a line: EMSA; 25 C 1 h. As to the method: (§1) After that the reaction was incubated at 4° C. for 1 minutes before use. Step 2: 1 µL HSA was mixed with 9 µL of aptamer against HSA and 1 µL of 0.4 µg/µL GHSA was mixed with 9 µL of aptamer against GHSA. Step 3: The reaction from step 2 was incubated at 25° C. for 1 hour and analyzed on 8% polyacrylamide gel at 100 V for 30 minutes. Step 4: Aptamers on the polyacrylamide gel from step 3 were transferred to nylon membrane (Amersham Hybond-N+; GE Healthcare). Classical DNA/RNA transferring method was used. The transferring buffer was SSC (150 mM […] and 15 mM Sodium citrate, pH 7.0) and incubation time was 12 h. Step 5: Aptamer analysis using Phototope®-Star Detection Kit (New England Biolabs) Nylon membrane was removed from the transferring set up and put in the clear plastic container containing solution A (5% Sodium Dodecyl Sulfate (SDS), 125 mM NaCl, 25 mM Sodium Phosphate, pH 7.5). The system was incubated at room temperature for 5 minutes with gentle shaking. The solution was discarded and 10 µL of streptavidin in 20 mL of solution A was added in the reaction container and incubated at room temperature for 5 minutes with gentle shaking. The solution was discarded. Then the membrane was washed 3 times by using solution B (1:10 of solution A in steriled water) with gentle shaking for 5 min. […]
Background: Mobility shift assays separate free from complexed probe on a gel.

Data set [2] concerns the target T1, Human serum albumin (HSA). The experiment in a line: ELONA; indirect ELISA: + at 200, 2, 0.2 nM, - at 20 nM; PBST, room temperature. The text has this: The binding assay of selected aptamers against HSA and aptamers against GHSA is deteimined by using Indirect Enzyme-Linked Immunosorbent Assay (Indirect ELISA) and Direct Enzyme-Linked Immunosorbent Assay (Direct ELISA), as described below. 3.1. Indirect Enzyme-Linked Immunosorbent Assay (Indirect ELISA) The principle of this experiment is based on two antibodies, which are antibodies against 5' biotinylated aptamer and antibodies against the first antibody. The second antibody is conjugated with horseradish peroxidase enzyme (HRP), which can changes TMB color from blue to be yellow. The yellow color intensity is direct indicator for the target protein concentration. Random selected aptamers in Table 5 and Table 6 were chosen for analysis using this method. Indirect ELISA Protocol Step 1: 0.8 μg of BSA or HSA or GHSA was added in 50 μl of 0.05 M carbonate buffer in 96 well plate (50 μL/well) and incubated at 4° C. for 1 night. In this process, all proteins will be coated on the 96 well plate.
Step 2: The reaction from step 1 was washed 5 times with Phosphate buffer (PBST) (0.05% Tween) using ELISA washing machine (Fluido 2) and tapped for 3-5 times.
Step 8: 50 μL of 0.6 M H_2SO_4 was added in the reaction and immediately measured the $OD_{450\ nm}$ using spectrophotometer.
(ELISA stands for enzyme-linked immunosorbent assay.)

Data set [3] concerns the target Glycated human serum albumin (GHSA) (Homo sapiens, UniProt P02768 P02768:25-609). The experiment in a line: EMSA; unit as printed (umole); 25 C 1 h; also EMSA positive in Table 6 and direct ELISA positive. The method, then:
Step 5: Aptamer analysis using Phototope®-Star Detection Kit (New England Biolabs) Nylon membrane was removed from the transferring set up and put in the clear plastic container containing solution A (5% Sodium Dodecyl Sulfate (SDS), 125 mM NaCl, 25 mM Sodium Phosphate, pH 7.5). The system was incubated at room temperature for 5 minutes with gentle shaking. The solution was discarded and 10 µL of streptavidin in 20 mL of solution A was added in the reaction container and incubated at room temperature for 5 minutes with gentle shaking. The solution was discarded. Then the membrane was washed 3 times by using solution B (1:10 of solution A in steriled water) with gentle shaking for 5 min. Then the washing buffer was discarded before the next round washing. […] in 20 mL of solution A was added in the container. Then the system was incubated at room temperature for 5 minutes with gentle shaking. Then the solution is discarded. The membrane was washed 3 times by solution C (10 mM Tris HCl, 10 mM NaCl, 1 mM […], pH 9.50) with gentle shaking and then solution is discarded. […]
The quantitative binding of G8 aptamer from this invention and clone 9 aptamer from the previous study were analyzed by electromobility shifted assay (EMSA) and results were compared. […]

Data set [4] has as its target T1, Human serum albumin (HSA). The experiment in a line: EMSA; 25 C 1 h; indirect ELISA also + at 0.2-200 nM (Table 9). The method, then: as §1

T1 sequence (P02768 25-609, one chain of several): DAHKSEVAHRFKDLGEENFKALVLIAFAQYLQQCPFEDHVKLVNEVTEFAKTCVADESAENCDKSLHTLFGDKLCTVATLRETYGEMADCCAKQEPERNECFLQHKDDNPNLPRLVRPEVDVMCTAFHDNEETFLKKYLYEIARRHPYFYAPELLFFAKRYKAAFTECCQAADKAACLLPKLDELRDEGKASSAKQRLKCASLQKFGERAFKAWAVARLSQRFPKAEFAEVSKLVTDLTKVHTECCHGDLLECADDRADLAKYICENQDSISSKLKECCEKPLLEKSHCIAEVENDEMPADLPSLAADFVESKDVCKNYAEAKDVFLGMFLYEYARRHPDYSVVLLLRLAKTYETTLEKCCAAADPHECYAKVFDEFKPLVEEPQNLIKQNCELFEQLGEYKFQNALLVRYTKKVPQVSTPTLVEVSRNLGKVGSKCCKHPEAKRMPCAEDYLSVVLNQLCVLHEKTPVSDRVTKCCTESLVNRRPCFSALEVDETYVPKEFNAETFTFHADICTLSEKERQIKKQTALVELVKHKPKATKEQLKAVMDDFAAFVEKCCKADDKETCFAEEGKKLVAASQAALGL
Sequence of Glycated human serum albumin (GHSA) (P02768 25-609, one chain of several): as above

B1: H8 (ssDNA)
DNA: ATACCAGCTTATTCAATTCCCCCGGCTTTGGTTTAGAGGTAGTTGCTCATTACTTGTACGCTCCGGATGAGATAGTAAGTGCAATCT
As to B1, the binding result in data set [1] is “binds”.

B2: clone 9 (ssDNA)
DNA: TAACTCACTCCATACTCACTTGCTGATTCGCCAACAACACACCCTTAAACAGTCCC
As for B2, in data set [2], the binding result was “binds”.

Regarding GGTGCGGTTCGTGCGGTTGTAGTACTCGTGGCCGATAGAGGTAGTTTCG (ssDNA) [G8], the binding result in data set [3] is reported as “binds”.

B3: H14 (ssDNA)
DNA: ATACCAGCTTATTCAATTCGCGCACATATACAGGGCTTTACCAGCGGGGAAGGTTAGCGACGCGAGGGGGAGATAGTAAGTGCAATCT
B3: the binding result in data set [4] is listed as “binds”.
